Data as given in patent US20110251140A1 (CENTRO DE INGENIERIA GENETICA Y BIOTECNOLOGIA, published 2011).
No end group written: not given here.

T1: IL-15Rα on CTLL-2 cells (murine (CTLL-2 murine cell line), UniProt Q60819 33-263)
T1 sequence (looked up): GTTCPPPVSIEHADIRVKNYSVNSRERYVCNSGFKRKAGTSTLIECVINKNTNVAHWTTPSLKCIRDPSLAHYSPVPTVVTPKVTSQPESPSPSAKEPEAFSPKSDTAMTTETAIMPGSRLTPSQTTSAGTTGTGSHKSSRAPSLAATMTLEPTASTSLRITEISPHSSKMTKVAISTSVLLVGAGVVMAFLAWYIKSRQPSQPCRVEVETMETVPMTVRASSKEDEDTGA


Assays:
IL-15Rα on CTLL-2 cells [1] = target: T1, IL-15Rα on CTLL-2 cells; experiment: cell-based or functional assay
IL-15Rα on CTLL-2 cells [2] = target: T1, IL-15Rα on CTLL-2 cells; experiment: cell-based or functional assay; remark: listed apart in the source

| Binder | IC50 (µM), IL-15-induced (300 pg/mL) proliferation of the CTLL-2 cell line, MTT (IL-15Rα on CTLL-2 cells [2]) [µM] | IC50 (µM), IL-15-induced proliferation of the CTLL-2 cell line, MTT; '0' stands for loss of the inhibitory effect (IL-15Rα on CTLL-2 cells [2]) [µM] | further results |
| --- | --- | --- | --- |
| KVTAMTCFLL-NH2 [peptide SEQ ID No. 12 (Lys-Thr mutant, monomer)] | 24.6 | – | fold inhibitory activity against the original peptide, CTLL-2 proliferation assay (IL-15Rα on CTLL-2 cells [1]): 5 fold |
| KVTAMKCFLA-NH2 | 260 | – | – |
| KVTAMTCFLL-NH2 (also: homodimer, two monomers linked through the free Cys) [peptide dimer of SEQ ID No. 12 linked through the free Cys] | – | – | fold inhibitory activity against the original peptide, CTLL-2 proliferation assay (IL-15Rα on CTLL-2 cells [1]): 15 fold; inhibitory concentration 50 (IC50), IL-15-dependent proliferation (IL-15Rα on CTLL-2 cells [1]): 8 µM |
| KVTAMKCALL-NH2 [mutant Phe-Ala (SEQ ID No. 4)] | – | 0 | – |
| KVTAMKAFLL-NH2 [Cys-Ala mutant (SEQ ID No. 5)] | – | 0 | – |
| KVTAAKCFLL-NH2 | 130 | – | – |
| KVTAMKCFAL-NH2 | 200 | – | – |
| KVTAMTCYLL-NH2 | 57.7 | – | – |
| KVTAMKSFLL-NH2 | – | 0 | – |
| KVAAMKCFLL-NH2 | 130 | – | – |
| KVTAMECFLL-NH2 | – | 0 | – |
| KATAMKCFLL-NH2 | 130 | – | – |
| KVTAMKCFLL-NH2 [KVTAMKCFLL (IL-15 antagonistic peptide of patent application No. WO2006/029578)] | 130 | – | – |
